B1: TPR t1 (parent)
chain: GACCAAUCUGCCCUCAGAGCUCGAGAACAUCUUCGGAUGCAGAGGAGGCAGGCUUCGGUGGCGCGAUAGCGCCAACGUCCUCAACCUCCAAUGCAUCCCACCACAUGAUGAUGCCUGAAGAGCCUUGGUUUUUUG

Variants of: B1
Test: polymerase ribozyme fitness, log enrichment relative to wild type (log ratio); higher = more active; in vitro selection for triplet polymerase activity
In short: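 Streptavidin-bead capture of gel-excised extended constructs, followed by RT-PCR, closed a single triplicate in vitro selection round. That round began by annealing PCR-built, transcribed mutant libraries of each subunit of a heterodimeric triplet polymerase ribozyme with a biotinylated primer, the partner subunit and triplets, then incubating them frozen at −7 °C. After Illumina sequencing of inputs and outputs, genotypes needed ≥10 input reads and ≥1 read per output. Fitness is the base-2 logarithm of genotype enrichment over wild-type enrichment, using inverse-variance-weighted replicate averages.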

In order of rising “polymerase ribozyme fitness (log ratio)” value:
1. GACCACUCUGCCCUCAGAGCUCGAGAACAUGUUUGGAUGCAUAGGAGGCAGGCUUCGGUGGCGCGAUAGCGCCAACGUCCUCAACCUCCAAUCCAUCCCACCACAUGAUGCUGCCUGAAGAGCCUUGGUUUUUUG [A6C C31G C34U G42U G93C A111C]  -6.9
2. GACCACUCUGCCCUCAGAGCUCGAGAACAUCUUCCGAUGCAGAGGAGGCAGGCUUCUUUCGCGCGAUAGCGCCAACGUCCGCAACCUCCAAUGCAUCCCACCACAUGAUGGUGCCUGAAGAGCCCUGGUUUUUUA [A6C G35C G57U G58U G60C U81G A111G U125C G135A]  -6.83
3. GACCACUCUGCCCUCAGAGCUCGAGAACAUCUUCGGAUGUAGAGGAGGCAGGCUUCGGUAGCGCGAUAGCGCGAACGUCCUCAACCUCCAAUGCAUCCCACCACAUUAUGAUGCCUGAAGAGCUUUGGUUUUUUG [A6C C40U G60A C73G G107U C124U]  -5.46
4. GACCACUCUGCCCUCAGAGCUAGAGAACAUCUUCGGAUGCAGAGGAGGCAGGCUUCGGUGGCGCGAUAGCGCCAACGUCCUCAACCCCCAAUGCAUCCCACCACAUGAUGAUCCCUGAAGAGCCUUGGUUUUUUG [A6C C22A U87C G113C]  -5.35
5. GACCACUCUGCCCUCAGAGCUGGAGAACAUCUUCGGAUGCAGCGGAGGCAGGCUUCGGAGGCGCGAUAGCGCCAACGUCCUCAACCCCCAAUGCAUCCCACCACAUGAUGAUGCCUGGAGAGCCUUGGUUUUUUG [A6C C22G A43C U59A U87C A118G]  -5.18
6. GACCACUCUGCCCUUAGAGCUCGAGAACAUCUUAGGAUCCAGAGGAGGCAGGCUUCGGUGGCGCGAUAGCGCCAACGUCCUCAACCUCCAAUGCAUCCCACCACAUGAUGAUGCCUGAAGAGCCUUGGUUUUUUG [A6C C15U C34A G39C]  -5.02
7. GACCACUCUGCCCUCAGAGCUCGAGAACAUCUUCGGAUGCAGAGGAGGCAGGCUUCGGUGGCGCGAUAGCGCCAACGUCCUCAACCUCCAAUGCAUCCCACCACAUGGUGAUGCCUGAAGAGCCUUGGGUUUUUG [A6C A108G U129G]  -3.64
8. GACCACUCUGCCCUCAGAGCUCGAGAACUUCUUCGGAUGCAGAGGAGGCAGGCUUUGGUGGCGCGAUAGCGCCAACGUCCUCAACCUCCAAUGAAUCCCACCACAUGAUGAGGCCUGAAGAGCCUUGGUUUUUUG [A6C A29U C56U C94A U112G]  -3.35
9. GACCACUCUACCCUCAGAGCUCGAGAACAUCUACGGAUGCAGAGGAGGAAGGCUUCGGUGGCGCGAUAGCGCCAACGUCCUCAACCUCCAAUGCAUCCCACCACAUGAUGAUGCCUGAAGUGCCUUGGUUUUUUG [A6C G10A U33A C49A A121U]  -2.86
10. GACCACUCUGCGCUCAGAGCUCGAGAACAUCUUCGGAUGCAGAGGAGGCAGACUUCGGUGGCUCGAUAGCGCCAACGUCCUCAACCUCCAAUGCAUCCCACCACAAGAUGAUGCCUGAAGAGCCUUGGUUUUUUG [A6C C12G G52A G63U U106A]  -2.76
11. GACCACUCUGCCCUCAGAGCUCGAGAACAUCUUCGGAUGCAGAGGAGGCAGGCUUCGGUGGCGCGAUAGCGCCAACGUCCUCAAACUCCAAUGCAUCCCACCACAUGAUGAUGCCUGAAGAGCCUUGGUUUUUUG [A6C C85A]  -2.67
12. GACCACUCUGCCCUCAGAGCUCGAGAACAUCUUCGGAUGCAGUGGAGGCAGGCUUCGGUGGCGCGAUAGCGCCAACGUCCUCUACCUCCAAUGCAUCUCACCAUAUGAUGAUGCCUGAAGAGCCUUGGUUUUUUG [A6C A43U A83U C98U C104U]  -2.52
13. GACCACUCUGGCCUUAGAGCUCGAGAACAUCUUCGGAUGCAGAGGAGGCAGGCUUCGGUGGCGCGAUAGCGCCAACGUCCUCAACCUCCAAUGCAUCCCACAACAUGAUGAUGCCUGAAAAGCCUUGGUUUUAUG [A6C C11G C15U C102A G120A U133A]  -2.14
14. GACCACUCUGCCCUCAGAGCUCGAGAACAUCUUCGGAUGCAUAGGAGGCAGGCUUCGGUGGCCCGAUAGCGCCAACGUUCUCAACCUCCAAUGCAUCCCACCACAUGAUGAUGCCUGAAGAGCCUUGGUUUUUUG [A6C G42U G63C C79U]  -2.06
15. GACCACUCUGCCCUUAGAGCUCGAGAACAUCUUCGGAUGCAGAGGAGGCAGGCUUCGGUGGCCCGAUAGCGCCAACGUCCUCAACCUCCAAUGCAUCCCACCACAUGAUGAUGCCUGAAGAGCCUUGGUUUUUUG [A6C C15U G63C]  -2.01
16. GACCACUCUGCCCUUAGAGCUCGAGAACAUCUUCGGAUGCAGAGGAGGCAGGCUUCGGUGGCGCGAUAGCGCCAACGUCCUCAACCUCCAAUGCAUCCCACCACAUGAUGAUGCCUGAAGAGCCUUGGUUUUUUG [A6C C15U]  -1.98
17. GACCACUCUGCCCUCAGAGCUCGAGAACAUCUUCGGAUUCAGAGGAGGCAGGCUUCGGUGGCGCGAUAGCGCCAACGUCCUCAACCUCCAAUGCAUCCCACCACAUGAUGAUGCCUGAAGAGCCUUGGUUUUUUG [A6C G39U]  -1.84
18. GACCACUCUGCACUCAGAGCUCGAGAACAUCUUCGGAUGCAGAGGAGGCAGGCUUCGGUGGCGCGAUAGCGCCAACGUCCUCAACCUCCAAUGCAUCCCACCACAUGAUGAUGCCUGAAGAGCCUUGGUUUUUUG [A6C C12A]  -1.61
19. GACCACUCUGCCCUCAGAGCUCGAGAACAUCUUCGGAUGCAGAGGAGGCAGGCUUCGGUGGCGCGAUAGCGCCAACGUCAUCAACCUCCAAUGCAUCCCACCACAUGAUGAUGCCUGAAGAGCCUUGGUUUUUUG [A6C C80A]  -1.52
20. GACCACUCUGCACUCAGAGCUCGAGAACAUCUUCGGAUGCAGAGGAGGCAGGUUUCGGUGGCGCGAUAGCGCCAACGCCCUCAACCUCCAAUGCAUCCCACCACAUGAUGAUGCCUGAAGAGCCUUGGUUUUUUG [A6C C12A C53U U78C]  -1.07
21. GACCACUCUGCCCUCAGAGCUCGAGAACAUCUUCGGAUGCAGAGGAAGCAGGCUUCGGUGGUGCGAUAGCGCCAACGUCCUCAACUUCCAAUGCAUCCCACCACAUGAUGAUGCCUGAAGAGCCUUGGUUUUGUG [A6C G47A C62U C86U U133G]  -0.219
